Reference: the Immune Epitope Database (IEDB)
pIC50: −log10 of the molar value.

target: HLA-A*02:01; assay: IEDB peptide-MHC binding, purified MHC/competitive/radioactivity; ≥ and ≤ were set here for values at or beyond the usual limits of such assays; settings: source organism: Influenza A virus

Row | Sequence | pIC50
1 | LLFLKVPA | 6.58

same assay, conditions: source organism: Mammarenavirus brazilense

Row | Sequence | pIC50
2 | ALIAVSLIAA | 7.55
3 | GLFQLIFFL | 9.36
4 | FQLIFFLTLA | 6.64
5 | GLLEWIFRAL | 6.36
6 | MVNHSTYYV | 7.57

same assay, conditions: source organism: Mammarenavirus choriomeningitidis

Row | Sequence | pIC50
7 | SIISHNFCNL | 5.43
8 | SLNQTVHSL | 7.28

same assay, conditions: source organism: Mammarenavirus juninense

Row | Sequence | pIC50
9 | ALVAVSLIAI | 6.49

same assay, conditions: source organism: Mammarenavirus lassaense

Row | Sequence | pIC50
10 | FVFSTSFYLI | 6.48
11 | NLYDHALMSI | 8.41
12 | FVFSTSFYL | 8.60
13 | GTMPSLTLA | 5.78

same assay, conditions: source organism: Mammarenavirus machupoense

Row | Sequence | pIC50
14 | ALLPLSLLFL | 8.33
15 | DAMPGVLSYV | 7.36
16 | SLLPLSLLFL | 8.14
17 | ALVAVSLIA | 5.43
18 | TMNSVVQAL | 5.90
19 | VLSYVIGLL | 6.68

same assay, conditions: source organism: Mammarenavirus whitewaterense

Row | Sequence | pIC50
20 | FTPQIICGNV | 6.01
21 | YVNHTGFNV | 6.32
22 | ALNIALIAV | 7.72
23 | MINDTHFLL | 6.58
24 | QLDMIITAV | 7.24

same assay, conditions: source organism: Vaccinia virus WR

Row | Sequence | pIC50
25 | YVPGYSITT | 6.88
26 | FIVVATAAV | 8.15
27 | YLTAIQDFI | 8.72
28 | FLIPKGFYA | 9.09
29 | SLLVIWILIV | 5.99
30 | FIRYGDASLM | 5.63
31 | FLKYSRSKPA | 5.45
32 | NLFTFLHEI | 8.96
33 | ALLVATDPDA | 6.22
34 | FLFYPSMFTL | 9.64
35 | KMAGGIGLSI | 8.01
36 | MITMSAFLIV | 6.41
37 | KIDKLRQIV | 5.81
38 | YLLFGIKCI | 7.57
39 | SLLRKFLYCI | 6.47
40 | TVMNNLSEL | 6.27
41 | FLHTTFIDV | 9.34
42 | WLYGYNFII | 9.72
43 | ILTREMGFL | 5.64
44 | YLFTFTIYT | 8.48
45 | KLFLIKKMA | 5.97
46 | TAKSSFVCGI | 5.95
47 | YLVSSLSEI | 8.19
48 | LVITINYFL | 7.60

Row | Sequence | pIC50
49 | YIYYFFIRL | 8.06
50 | TVSDYISEL | 6.89
51 | SIDQKKSYV | 6.73
52 | GVLTIKAPNV | 5.41
53 | KLTDKKTFI | 5.95
54 | LLPGFVLTCI | 8.43
55 | SLDVINYLI | 9.26
56 | LVDNVDFAT | 6.34
57 | YMMGIEYGL | 9.92
58 | TMLSIILVII | 6.81
59 | IVMDNDDNI | 6.35
60 | ALGGSVNIWA | 5.93
61 | FLDNECHTI | 9.11
62 | KVFFGPIYYL | 7.74
63 | LLDLFGPEV | 8.22
64 | CMSANEAAI | 7.80
65 | RLVDFFPDI | 9.85
66 | GLADAFILL | 7.89
67 | STIATYIDAL | 5.56
68 | NLPEDIKRV | 6.82
69 | NVFKYLTSV | 9.12
70 | NTFYLFTFT | 6.31
71 | VILSPPINA | 6.06
72 | TLAPFNFLV | 9.66

Row | Sequence | pIC50
73 | LISGSTFSI | 6.30
74 | FVIVIYIFT | 5.46
75 | KLFFAKCLV | 7.64
76 | YASIINRDI | 5.65
77 | ILLLIGICVA | 6.17
78 | LLNPCLINV | 8.47
79 | SVVVPIKFI | 5.53
80 | GIAHLLEHL | 5.45
81 | GLIACLIFV | 8.11
82 | WLLCKLSCA | 6.82
83 | LLSSVDYKNI | 6.04
84 | LMDSIFVST | 9.14
85 | VLYPVIFIT | 8.03
86 | RLNPEVSYFT | 6.89
87 | TIMGVIFLI | 8.02
88 | MVNTVLITV | 6.92
89 | RTLDTAIFT | 5.46
90 | TIDQTANVV | 6.26
91 | FLRGEAILQI | 7.07
92 | YLAIPDLYGI | 8.09
93 | LLMTSLQYA | 8.60
94 | TLFLILCYFI | 7.68
95 | KLFFAKCLVV | 8.64
96 | TLIDDPDNNL | 6.11

Row | Sequence | pIC50
97 | ITLTNVVNI | 6.03
98 | YLDGQLARL | 8.89
99 | KISLDISQL | 5.64
100 | YMATTILEMV | 8.82
101 | YLVIYLNRT | 6.09
102 | SLMDMITLSL | 9.23
103 | MLLALVALV | 9.38
104 | FLVGVAIILV | 8.12
105 | VMISILNPV | 7.48
106 | GLISGSTFSI | 7.66
107 | MLFVNDLMT | 6.13
108 | AITDAAVAVA | 5.42
109 | QIFEVYWYL | 7.96
110 | LVLGIALLYI | 8.17
111 | GLLDRLYDL | 9.89
112 | KLNKMTVEL | 8.19
113 | VVYSTCTVPT | 5.64
114 | ILMYPTTLL | 8.15
115 | FLHESDPMVI | 8.96
116 | YIIDKDTNSV | 7.52
117 | FLKIKVTAA | 7.28
118 | FLSLMSLSI | 8.46
119 | FQQPQFQYL | 7.32
120 | FLTSVINRV | 8.60

Row | Sequence | pIC50
121 | VLDATNDGLI | 6.43
122 | YLDFLLLLLI | 7.74
123 | CIDGKWNPVL | 5.73
124 | FMQRIISLSV | 8.74
125 | NVDNLIMIV | 6.77
126 | HIFMASPENV | 7.01
127 | RQIFIHYSV | 9.19
128 | MITMSAFLI | 6.37
129 | GLCIRISMV | 6.67
130 | IVFVFILTA | 6.53
131 | CLCSFHNDAI | 5.54
132 | DLLSYYVVYV | 9.35
133 | YLMDEEVPA | 7.89
134 | MLFVNDLMTM | 7.29
135 | LAKAIITPVV | 5.63
136 | LMEVFPQLDL | 6.61
137 | RVYEALYYV | 8.82
138 | STLIVTIYV | 6.17
139 | MTLSCNGET | 5.71
140 | IIFFIVLILL | 6.70
141 | YLLPGFVLT | 8.24
142 | CTANSWNVI | 6.10
143 | RLESYHRFDM | 5.48
144 | GMANTTFHV | 9.39

Row | Sequence | pIC50
145 | KLSSYHVVSV | 7.80
146 | KLTDKKTFII | 5.36
147 | VVSVDCNKEL | 5.61
148 | IVSVSESNI | 5.63
149 | NLATSIYTI | 8.92
150 | ELIKELTTL | 6.87
151 | KQDISLKRNA | 6.11
152 | FQYVSYSNFI | 5.84
153 | GILSNYVKTL | 6.51
154 | ETIGNQLYL | 5.45
155 | ILGILYLYET | 7.14
156 | YQLFSDAKA | 5.75
157 | KVYDKLFPV | 9.47
158 | LISLTNEIYA | 5.91
159 | ALIANIHNHM | 6.93
160 | KLTFLDVEV | 7.03
161 | QAKTKNFTI | 5.42
162 | SLLVAPMPT | 6.03
163 | GVIEYAKSI | 5.38
164 | HISIKVKNHI | 6.55
165 | VIGLCIRISM | 6.13
166 | FIDTVSVYT | 6.64
167 | GLYYQGSCYI | 8.29
168 | GVSKKNIWL | 5.50

Row | Sequence | pIC50
169 | YLYALYSPL | 9.89
170 | ATYHIIIVAL | 5.94
171 | VLLTYFCFV | 9.55
172 | KLSCAVHLI | 8.49
173 | NMISDTIFV | 8.66
174 | IVYCLNALV | 6.99
175 | YVKTLLISM | 5.72
176 | SLEATYHII | 6.12
177 | IAMENLKAML | 6.17
178 | YAYGWIPET | 7.37
179 | RLYDYFTRV | 7.96
180 | DMMSLNLTIV | 5.55
181 | VLGKVTINNL | 5.75
182 | LQYDLWNVV | 7.66
183 | RTVIHLEWLL | 6.87
184 | DASLMDMITL | 6.69
185 | QTANVVFRYM | 6.14
186 | YINTHNEVGI | 5.78
187 | RTSQKGTVA | 6.12
188 | IIITCCLLSV | 8.20
189 | RLSTEERHI | 6.15
190 | LLNLLLWPL | 10.14
191 | AMIELCGAFL | 9.11
192 | FACLMFKHLL | 5.94

Row | Sequence | pIC50
193 | ILYMVVDGSV | 6.97
194 | AIIDIEPDL | 6.52
195 | GLFIYIPGT | 7.72
196 | ELYNKPLYEV | 9.10
197 | AIYKLGSSI | 5.96
198 | LLYAHINAL | 8.08
199 | VMVTITQNV | 7.43
200 | RLHKECLLRL | 6.35
201 | GLCIRISMVI | 5.69
202 | WLLGFIKCI | 7.60
203 | YLLSGSDLFI | 9.60
204 | STEERHIFL | 5.65
205 | YQLAGYILT | 7.80
206 | EATYHIIIVA | 5.67
207 | KLYTIVSTL | 7.82
208 | NVVSSSTIA | 6.23
209 | ALVASLNPNM | 5.88
210 | IMYTYFSNTI | 7.00
211 | TVASAQIHL | 5.50
212 | YLDFLLLLL | 9.37
213 | CVLTTIDGV | 6.53
214 | NQLYLTVSFI | 6.28
215 | SLEATYHIII | 5.30
216 | YTIERIFNA | 9.25

Row | Sequence | pIC50
217 | YLFDYPHFEA | 10.07
218 | KLQAAPYIV | 8.92
219 | LAERFCTEV | 6.63
220 | KTISVVTLL | 6.54
221 | LLFFLALSI | 7.59
222 | LILSCIFAFI | 7.74
223 | KMHDVIAPA | 8.59
224 | EQEFLTAAL | 7.77
225 | GIFCFRILL | 8.11
226 | FVADRLISEL | 5.73
227 | SLSSQMTST | 5.70
228 | GTINRILVIT | 5.91
229 | VVMAYVGIKL | 6.66
230 | ITLYDFDYYI | 7.54
231 | NVFETRIVM | 5.58
232 | PLLFILFYFA | 7.38
233 | FTPRDNETV | 6.06
234 | QAIMESDSFL | 7.17
235 | GLIKKPYRSI | 6.07
236 | FMASPENVI | 7.89
237 | VLVDNVDFA | 7.70
238 | VIVIYIFTV | 6.98
239 | SMICLSLILA | 7.00
240 | YLIKLIEPV | 8.10

Row | Sequence | pIC50
241 | FLLIRYITT | 7.34
242 | GLIYSMEFT | 5.91
243 | KLYLVDYGLV | 7.70
244 | VMDNDDNIL | 6.14
245 | LLISMYCSKT | 5.94
246 | SMPASHNNLA | 5.72
247 | STFIMLEGET | 5.46
248 | SQYANCSSI | 7.09
249 | LLMMTLPSI | 9.96
250 | FIKPPLITL | 6.43
251 | KTITTCYLM | 6.35
252 | FMFIGSPMYL | 10.03
253 | MLNGIMYRL | 9.46
254 | GMLFVNDLMT | 6.08
255 | AMFTAALNI | 8.62
256 | IIDKDTNSVT | 5.55
257 | ILFNLSKFLL | 8.40
258 | FINFFNLLA | 6.14
259 | AVISKVTYSL | 5.32
260 | YMDLSYHGVT | 7.07
